Reference: the supplement of paper PMC10126150
± gives the standard deviation of the averaged measurements.

System: ATP
Assay: switch fluorescence ratio, 500 uM ATP over buffer (Cy3 cluster intensity, sum of 5 cycles each) (fold (ratio)); higher = stronger signal-on switching upon ATP binding; sequences stand for … in TCGTCGGCAGCGTCAGATGTGTATAAGAGACAGTTTTTTTTTTTTTTTTTTTTTTTTT…TC
Conditions: aptamer strand: ATP DNA aptamer (quencher-CACCTGGGGGAGTATTGCGGAGGAAGG + anchor), 100 nM annealed; ATP concentration: 500 uM
Method in brief: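 Five buffer/ATP imaging cycles were run on Cy3-labelled switching-strand clusters on a modified Illumina MiSeq flow-cell, with NaOH stripping and re-annealing between cycles. In each cycle, clusters annealed to 100 nM quencher-labelled ATP aptamer were imaged in selection buffer, then after 15 min with 500 uM ATP at 22 °C. Per cluster, the fluorescence ratio is summed target-cycle over summed buffer-cycle Cy3 intensity, averaged per switch-domain sequence. Only clusters within 100-1000 RFU were kept.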
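Also: ATP exposure 15 min at 22 °C before imaging.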

Sequence	switch fluorescence ratio
TACGGAGGGT	1.22 ± 0.31
TACGGATCGT	0.974 ± 0.03
TACGGCGTAC	1.08 ± 0.051
TACGGCTTTT	1.01 ± 0.0062
TACGGGAGCC	1.01 ± 0.025
TACGGGAGGC	1.02 ± 0.032
TACGGGCGGC	1.05 ± 0.016
TACGGGCGGG	1.24 ± 0.17
TACGGGCTTT	1.03 ± 0.033
TACGGGGACA	1.07 ± 0.055
TACGGGGAT	1.84 ± 1.2
TACGGGGCCA	0.992 ± 0.01
TACGGGGGAA	1.26 ± 0.31
TACGGGTCGA	1.01 ± 0.016
TACGGGTTAG	1.031 ± 0.0034
TACGGGTTCG	0.99 ± 0.028
TACGGTCAGC	1.03 ± 0.016
TACGGTGCAG	0.981 ± 0.024
TACGGTGGTG	0.987 ± 0.018
TACGTACGCC	1.57 ± 0.073
TACGTATACT	1.39 ± 0.015
TACGTGTAGA	1.02 ± 0.056
TACGTTACTC	1.56 ± 0.018
TACGTTATTT	1.16 ± 0.027
TACGTTGCAT	1.05 ± 0.055

Sequence	switch fluorescence ratio
TACGTTTAAT	1.04 ± 0.031
TACTACACAC	1.406 ± 0.013
TACTACGTAA	2.27 ± 0.4
TACTACTATT	1.03 ± 0.016
TACTACTTGC	1.05 ± 0.0085
TACTAGAGCG	1.03 ± 0.04
TACTATGTTG	1.02 ± 0.065
TACTATTGGA	1.01 ± 0.021
TACTATTTTC	0.984 ± 0.042
TACTCACGAA	1.42 ± 0.027
TACTCATGAA	1.038 ± 0.0037
TACTCGTCTA	1.02 ± 0.018
TACTCTCGGT	1.035 ± 0.0057
TACTCTTTGT	1.015 ± 0.002
TACTGAATGG	0.997 ± 0.0051
TACTGCAATT	1.35 ± 0.22
TACTGCGGTC	0.998 ± 0.012
TACTGGAAGG	0.941 ± 0.019
TACTGGACTT	1.14 ± 0.033
TACTGGATGA	0.991 ± 0.029
TACTGGCTAA	1 ± 0.038
TACTGGGGAC	1.03 ± 0.035
TACTGGGGGA	1.07 ± 0.03
TACTGGGTCG	1.01 ± 0.043
TACTGTACTC	1.54 ± 0.035

Sequence	switch fluorescence ratio
TACTTAAAAC	1.011 ± 0.0078
TACTTACTAG	1.099 ± 0.01
TACTTAGGTT	0.98 ± 0.024
TACTTAGTGC	1.02 ± 0.045
TACTTGAGCG	1.02 ± 0.02
TACTTGCTTC	1.02 ± 0.038
TACTTGGAAC	1.04 ± 0.012
TACTTTATTA	1.019 ± 0.0035
TAGAAACGCG	0.983 ± 0.025
TAGAAATGAT	0.987 ± 0.033
TAGAAATTGG	1.03 ± 0.03
TAGAACGTCG	0.98 ± 0.031
TAGAAGACAG	0.996 ± 0.025
TAGAAGCCGG	0.98897 ± 0.00029
TAGAAGGGCC	0.976 ± 0.02
TAGAAGGTGG	1.04 ± 0.073
TAGAATCAGG	1.055 ± 0.0011
TAGAATCCG	1.003 ± 0.009
TAGAATTATC	1.017 ± 0.0056
TAGAATTGGT	0.983 ± 0.016
TAGACAAAAA	1.08 ± 0.12
TAGACATCCA	1.048 ± 0.0045
TAGACGCTCA	1.105 ± 0.0057
TAGACGGGCT	0.9797 ± 0.0025
TAGACTATGG	1.04 ± 0.023

Sequence	switch fluorescence ratio
TAGACTGGTT	0.992 ± 0.018
TAGACTTTGG	0.968 ± 0.025
TAGAGACGGA	1.0278 ± 0.001
TAGAGATCTG	0.996 ± 0.014
TAGAGCTGCA	1.02 ± 0.026
TAGAGCTTAG	0.9812 ± 0.0037
TAGAGGAG	1.01 ± 0.05
TAGAGGATGC	0.998 ± 0.07
TAGAGGCGAA	1 ± 0.011
TAGAGGCGTT	0.986 ± 0.012
TAGAGGGGCA	0.979 ± 0.011
TAGAGGGGGT	0.998 ± 0.039
TAGAGGTGGG	1.21 ± 0.34
TAGAGTGATG	0.943 ± 0.013
TAGAGTTCTC	1.01 ± 0.013
TAGAGTTTTA	0.972 ± 0.022
TAGATAGAAC	0.976 ± 0.054
TAGATCCTTT	1.03 ± 0.027
TAGATCGAAC	1.02 ± 0.024
TAGATGCGGT	1.01 ± 0.032
TAGATGTTTA	1.32 ± 0.6
TAGATGTTTT	0.986 ± 0.035
TAGATTGTAA	1.05 ± 0.11
TAGATTGTTT	0.998 ± 0.021
TAGATTTCTG	0.989 ± 0.025

Sequence	switch fluorescence ratio
TAGCAGTCAA	1.02 ± 0.02
TAGCCAAGGG	0.994 ± 0.053
TAGCCCGGTG	1.47 ± 0.53
TAGCCCTTTT	0.973 ± 0.01
TAGCGAAGTG	0.929 ± 0.061
TAGCGAGCGC	0.988 ± 0.068
TAGCGCGGGA	1 ± 0.016
TAGCGGCGTC	1 ± 0.098
TAGCGGGCGC	0.986 ± 0.032
TAGCGGGGAC	1.07 ± 0.037
TAGCGGGGCG	0.9881 ± 0.0061
TAGCGGGGGC	1.02 ± 0.05
TAGCGGGTTC	1.055 ± 0.0048
TAGCGGTCTC	1.03 ± 0.032
TAGCGTAGAA	0.993 ± 0.046
TAGCTAAATT	0.99 ± 0.012
TAGCTAATCC	1.08 ± 0.015
TAGCTAGGTG	1.62 ± 0.05
TAGCTCGGCT	0.95364 ± 0.00022
TAGCTCGGGC	1.03 ± 0.019
TAGCTCTAGT	1.016 ± 0.0044
TAGCTGATGT	1.03 ± 0.02
TAGCTTGTGG	0.9912 ± 0.0062
TAGGAAAAAT	1.09 ± 0.19
TAGGAAAGTG	1.03 ± 0.054

Sequence	switch fluorescence ratio
TAGGAACAGC	0.98 ± 0.012
TAGGAATCCA	0.999 ± 0.012
TAGGACCAGC	0.98 ± 0.012
TAGGACGTGC	0.9627 ± 0.0032
TAGGACTAGA	0.9597 ± 0.0039
TAGGAGCGAT	1.15 ± 0.031
TAGGAGGGCT	0.985 ± 0.049
TAGGAGGGGT	0.999 ± 0.022
TAGGAGGTCC	0.96 ± 0.081
TAGGAGGTGG	1.03 ± 0.041
TAGGAGGTTC	0.988 ± 0.021
TAGGAGTGGG	1 ± 0.01
TAGGAGTTAG	1 ± 0.047
TAGGAGTTGC	0.971 ± 0.052
TAGGAGTTTG	0.9894 ± 0.0046
TAGGATACTT	0.9769 ± 0.0016
TAGGATGAAG	1.03 ± 0.011
TAGGATGGAG	0.97358 ± 0.00078
TAGGATGGGC	1.04 ± 0.04
TAGGATGGGG	1 ± 0.032
TAGGATGTAT	0.9864 ± 0.0088
TAGGATTATA	0.964 ± 0.021
TAGGATTGTA	0.9806 ± 0.0089
TAGGCAACGA	1.04 ± 0.063
TAGGCAGGGT	1.56 ± 0.78

Sequence	switch fluorescence ratio
TAGGCATTGG	0.995 ± 0.014
TAGGCATTTT	1 ± 0.023
TAGGCCTTAC	1.43 ± 0.54
TAGGCGTGGT	1.01 ± 0.017
TAGGCTATAT	1.01 ± 0.042
TAGGCTGCTG	0.988 ± 0.021
TAGGCTTTCG	0.9957 ± 0.0076
TAGGCTTTGG	0.97 ± 0.0099
TAGGCTTTGT	1.01 ± 0.021
TAGGGAAAGA	1 ± 0.014
TAGGGAAGAT	1.07 ± 0.013
TAGGGACTGG	0.996 ± 0.016
TAGGGAGGGC	1.03 ± 0.041
TAGGGATTTG	1.01 ± 0.014
TAGGGATTTT	0.986 ± 0.018
TAGGGCATCG	1.01 ± 0.03
TAGGGCATGT	0.9798 ± 0.0026
TAGGGCATTG	1.01 ± 0.012
TAGGGCCAAC	1.016 ± 0.0092
TAGGGCGACT	1.04 ± 0.049
TAGGGCGCGT	0.9947 ± 0.0094
TAGGGCGGTT	0.98 ± 0.046
TAGGGCTTAG	1.02 ± 0.032
TAGGGGACAA	1 ± 0.035
TAGGGGAGGA	0.993 ± 0.035

Sequence	switch fluorescence ratio
TAGGGGCCTG	0.9831 ± 0.0098
TAGGGGCTTC	0.979 ± 0.018
TAGGGGGAGT	0.962 ± 0.059
TAGGGGGCAC	1 ± 0.025
TAGGGGGGCA	0.991 ± 0.041
TAGGGGGGGG	1.02 ± 0.073
TAGGGGGGTG	1.02 ± 0.025
TAGGGGGTAC	1.31 ± 0.58
TAGGGGGTTG	0.987 ± 0.027
TAGGGGGTTT	0.99 ± 0.032
TAGGGGTAGT	1.01 ± 0.033
TAGGGGTCAA	0.99815 ± 0.0002
TAGGGGTGAT	1.02 ± 0.047
TAGGGTACCG	1.06 ± 0.032
TAGGGTTGGA	1 ± 0.018
TAGGGTTGTG	0.9838 ± 0.0033
TAGGTAAAGA	0.98 ± 0.021
TAGGTAGATG	1.02 ± 0.018
TAGGTAGGGT	1.04 ± 0.073
TAGGTATGCG	1.18 ± 0.037
TAGGTCGCCA	1.04 ± 0.011
TAGGTCTGCA	1.033 ± 0.0058
TAGGTCTGGG	1.01 ± 0.036
TAGGTGGGGG	1.01 ± 0.039
TAGGTGGGGT	0.971 ± 0.016
